Measurements as given in doi:10.1101/2024.03.26.586525 (bioRxiv, 2024).
Like-named read-outs stand apart in the source and are kept apart here.

Columns and labels:
cryo-EM structure [1] = target: the molecule itself; assay: cryo-EM structure
cryo-EM structure [2] = target: the molecule itself; assay: cryo-EM structure; remark: listed apart in the source

Row | Protein | stoichiometry N (cryo-EM structure [1]) | stoichiometry N (cryo-EM structure [2])
1 | acetyl-coenzyme A synthetase 1 (Acs1) (enzyme, S. cerevisiae (endogenous in SK1 cells), UniProt Q01574 1-713, looked up) MSPSAVQSSKLEEQSSEIDKLKAKMSQSAATAQQKKEHEYEHLTSVKIVPQRPISDRLQPAIATHYSPHLDGLQDYQRLHKESIEDPAKFFGSKATQFLNWSKPFDKVFIPDPKTGRPSFQNNAWFLNGQLNACYNCVDRHALKTPNKKAIIFEGDEPGQGYSITYKELLEEVCQVAQVLTYSMGVRKGDTVAVYMPMVPEAIITLLAISRIGAIHSVVFAGFSSNSLRDRINDGDSKVVITTDESNRGGKVIETKRIVDDALRETPGVRHVLVYRKTNNPSVAFHAPRDLDWATEKKKYKTYYPCTPVDSEDPLFLLYTSGSTGAPKGVQHSTAGYLLGALLTMRYTFDTHQEDVFFTAGDIGWITGHTYVVYGPLLYGCATLVFEGTPAYPNYSRYWDIIDEHKVTQFYVAPTALRLLKRAGDSYIENHSLKSLRCLGSVGEPIAAEVWEWYSEKIGKNEIPIVDTYWQTESGSHLVTPLAGGVTPMKPGSASFPFFGIDAVVLDPNTGEELNTSHAEGVLAVKAAWPSFARTIWKNHDRYLDTYLNPYPGYYFTGDGAAKDKDGYIWILGRVDDVVNVSGHRLSTAEIEAAIIEDPIVAECAVVGFNDDLTGQAVAAFVVLKNKSSWSTATDDELQDIKKHLVFTVRKDIGPFAAPKLIILVDDLPKTRSGKIMRRILRKILAGESDQLGDVSTLSNPGIVRHLIDSVKL | 3 | –
2 | aldehyde dehydrogenase 4 (Ald4) (enzyme, S. cerevisiae (endogenous in SK1 cells), UniProt P46367 25-519, looked up) SHLPMTVPIKLPNGLEYEQPTGLFINNKFVPSKQNKTFEVINPSTEEEICHIYEGREDDVEEAVQAADRAFSNGSWNGIDPIDRGKALYRLAELIEQDKDVIASIETLDNGKAISSSRGDVDLVINYLKSSAGFADKIDGRMIDTGRTHFSYTKRQPLGVCGQIIPWNFPLLMWAWKIAPALVTGNTVVLKTAESTPLSALYVSKYIPQAGIPPGVINIVSGFGKIVGEAITNHPKIKKVAFTGSTATGRHIYQSAAAGLKKVTLELGGKSPNIVFADAELKKAVQNIILGIYYNSGEVCCAGSRVYVEESIYDKFIEEFKAASESIKVGDPFDESTFQGAQTSQMQLNKILKYVDIGKNEGATLITGGERLGSKGYFIKPTVFGDVKEDMRIVKEEIFGPVVTVTKFKSADEVINMANDSEYGLAAGIHTSNINTALKVADRVNAGTVWINTYNDFHHAVPFGGFNASGLGREMSVDALQNYLQVKAVRAKLDE | – | 4
